Measured values taken from the supplement of paper PMC10065799, “High-throughput profiling of sequence recognition by tyrosine kinases and SH2 domains using bacterial peptide display” (eLife, 2023).

Columns and labels:
EPHB1 = EPHB1 (UniProt P54762); test: phosphorylation enrichment, bacterial display (enrichment ratio); higher = better substrate or ligand; peptides without Tyr show the background
Hck = Hck (UniProt P08631); test: as above
FGFR1 = FGFR1 (UniProt P11362); test: as above
EPHB2 = EPHB2 (UniProt P29323); test: as above
Chain of EPHB2 (P29323 whole entry, looked up): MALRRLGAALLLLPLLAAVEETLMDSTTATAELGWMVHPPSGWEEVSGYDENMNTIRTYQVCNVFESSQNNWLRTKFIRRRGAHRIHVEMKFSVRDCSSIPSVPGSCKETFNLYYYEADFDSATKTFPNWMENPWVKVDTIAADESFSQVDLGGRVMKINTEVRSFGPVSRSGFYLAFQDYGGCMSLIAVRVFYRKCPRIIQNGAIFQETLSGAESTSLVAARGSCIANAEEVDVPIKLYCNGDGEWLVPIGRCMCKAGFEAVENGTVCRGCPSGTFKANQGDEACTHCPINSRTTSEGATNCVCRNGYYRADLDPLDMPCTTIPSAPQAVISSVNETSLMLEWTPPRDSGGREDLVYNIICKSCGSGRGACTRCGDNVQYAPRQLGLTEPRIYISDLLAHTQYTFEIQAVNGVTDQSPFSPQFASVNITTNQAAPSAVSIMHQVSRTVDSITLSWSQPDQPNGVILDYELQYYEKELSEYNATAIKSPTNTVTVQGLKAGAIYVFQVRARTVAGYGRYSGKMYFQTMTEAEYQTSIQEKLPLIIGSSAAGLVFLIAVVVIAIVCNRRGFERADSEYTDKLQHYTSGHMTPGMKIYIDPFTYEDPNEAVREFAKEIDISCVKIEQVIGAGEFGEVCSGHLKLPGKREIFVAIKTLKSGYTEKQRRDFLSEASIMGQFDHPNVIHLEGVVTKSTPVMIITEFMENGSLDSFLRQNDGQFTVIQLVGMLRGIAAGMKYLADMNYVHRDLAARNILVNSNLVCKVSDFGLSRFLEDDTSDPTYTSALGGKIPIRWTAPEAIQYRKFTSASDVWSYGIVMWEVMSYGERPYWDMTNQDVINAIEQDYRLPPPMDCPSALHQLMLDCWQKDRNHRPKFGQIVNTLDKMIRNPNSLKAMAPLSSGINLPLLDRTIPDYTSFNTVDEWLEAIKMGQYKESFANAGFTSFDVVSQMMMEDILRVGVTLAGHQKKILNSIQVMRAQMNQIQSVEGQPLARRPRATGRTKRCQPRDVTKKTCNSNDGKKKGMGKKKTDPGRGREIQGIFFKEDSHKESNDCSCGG

c-Src = test: as above
Jak2 = Jak2 (UniProt O60674); test: as above
Fer (mouse) = test: as above
Fyn = Fyn (UniProt P06241); test: as above
Chain of Fyn (P06241 whole entry, looked up): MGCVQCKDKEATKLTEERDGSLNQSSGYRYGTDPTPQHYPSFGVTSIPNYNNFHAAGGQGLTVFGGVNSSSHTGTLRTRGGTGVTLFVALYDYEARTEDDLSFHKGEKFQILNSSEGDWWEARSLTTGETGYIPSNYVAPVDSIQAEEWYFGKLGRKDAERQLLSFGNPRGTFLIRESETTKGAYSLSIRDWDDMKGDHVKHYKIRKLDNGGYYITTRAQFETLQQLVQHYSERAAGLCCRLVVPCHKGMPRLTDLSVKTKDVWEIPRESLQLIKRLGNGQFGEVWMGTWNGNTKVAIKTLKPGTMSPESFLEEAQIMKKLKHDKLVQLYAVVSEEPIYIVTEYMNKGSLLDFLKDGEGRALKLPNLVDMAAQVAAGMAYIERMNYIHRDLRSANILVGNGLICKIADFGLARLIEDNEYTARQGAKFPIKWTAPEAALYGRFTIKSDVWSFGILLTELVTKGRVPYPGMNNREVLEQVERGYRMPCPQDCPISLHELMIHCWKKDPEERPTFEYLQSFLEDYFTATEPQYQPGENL

AncSZ = test: as above
FGFR3 = FGFR3 (UniProt P22607); test: as above
MERTK = MERTK (UniProt Q12866); test: as above
Chain of MERTK (Q12866 whole entry, looked up): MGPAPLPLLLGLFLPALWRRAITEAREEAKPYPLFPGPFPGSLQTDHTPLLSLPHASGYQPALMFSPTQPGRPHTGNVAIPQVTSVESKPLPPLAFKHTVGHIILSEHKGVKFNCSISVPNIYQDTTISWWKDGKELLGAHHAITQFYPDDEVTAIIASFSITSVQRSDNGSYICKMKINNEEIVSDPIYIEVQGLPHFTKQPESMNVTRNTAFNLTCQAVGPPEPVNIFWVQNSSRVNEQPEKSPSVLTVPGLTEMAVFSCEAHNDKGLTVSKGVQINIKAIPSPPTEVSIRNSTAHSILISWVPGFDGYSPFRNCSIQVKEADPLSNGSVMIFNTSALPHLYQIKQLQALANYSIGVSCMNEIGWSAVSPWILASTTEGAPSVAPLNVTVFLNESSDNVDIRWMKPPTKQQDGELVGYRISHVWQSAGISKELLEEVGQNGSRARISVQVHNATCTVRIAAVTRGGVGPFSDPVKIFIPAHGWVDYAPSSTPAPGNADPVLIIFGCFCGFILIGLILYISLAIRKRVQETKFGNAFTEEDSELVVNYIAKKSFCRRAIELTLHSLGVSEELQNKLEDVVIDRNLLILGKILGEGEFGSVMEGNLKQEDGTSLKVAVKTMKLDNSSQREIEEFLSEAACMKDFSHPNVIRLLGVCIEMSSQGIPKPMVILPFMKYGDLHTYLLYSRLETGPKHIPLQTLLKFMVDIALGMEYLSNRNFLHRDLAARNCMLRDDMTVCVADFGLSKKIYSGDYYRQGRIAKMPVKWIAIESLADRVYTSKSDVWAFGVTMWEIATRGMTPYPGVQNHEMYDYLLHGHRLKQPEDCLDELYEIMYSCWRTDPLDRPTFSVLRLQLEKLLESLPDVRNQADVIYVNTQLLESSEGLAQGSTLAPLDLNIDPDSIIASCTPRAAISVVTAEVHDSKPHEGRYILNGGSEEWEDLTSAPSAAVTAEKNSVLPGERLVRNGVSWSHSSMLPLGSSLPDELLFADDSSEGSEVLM

Fes = Fes (UniProt P07332); test: as above
c-Abl (mouse) = test: as above
Grb2 SH2 = Grb2 SH2 (UniProt P62993); test: SH2 binding enrichment of the phosphorylated peptide, bacterial display (enrichment ratio); higher = better substrate or ligand; peptides without Tyr show the background
SHP2-C SH2 = test: as above
c-Src SH2 = test: as above
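Throughout, for SH2 binding enrichment of the phosphorylated peptide, bacterial display: peptide library displayed on the E. coli surface as eCPX fusions, selected cells deep-sequenced, score is each peptide's frequency after selection divided by its frequency in the input.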
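Throughout, for phosphorylation enrichment, bacterial display: 11-residue human phosphosite peptides and single-mutation variants displayed on the E. coli surface, counted by deep sequencing, each peptide's frequency after selection divided by its frequency in the unselected input library; frequency after pTyr selection over input frequency; kinase dosed for 20-30% of maximal phosphorylation in three min.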

Chain of Hck (P08631 whole entry, looked up): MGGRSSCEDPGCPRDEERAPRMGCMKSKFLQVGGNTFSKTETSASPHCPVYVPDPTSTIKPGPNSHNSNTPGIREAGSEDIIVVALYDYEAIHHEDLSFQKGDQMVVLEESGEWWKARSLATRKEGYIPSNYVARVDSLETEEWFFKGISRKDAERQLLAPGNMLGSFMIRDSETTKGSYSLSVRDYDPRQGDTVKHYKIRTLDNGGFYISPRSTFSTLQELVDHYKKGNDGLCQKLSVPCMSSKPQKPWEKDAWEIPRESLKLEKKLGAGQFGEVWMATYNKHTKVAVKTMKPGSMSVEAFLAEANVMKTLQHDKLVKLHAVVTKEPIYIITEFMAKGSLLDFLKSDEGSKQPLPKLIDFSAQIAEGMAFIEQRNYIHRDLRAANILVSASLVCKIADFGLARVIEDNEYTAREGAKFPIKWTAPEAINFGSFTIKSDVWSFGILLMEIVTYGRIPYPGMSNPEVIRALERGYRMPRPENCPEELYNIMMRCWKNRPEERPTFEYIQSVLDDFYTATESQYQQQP
Chain of EPHB1 (P54762 whole entry, looked up): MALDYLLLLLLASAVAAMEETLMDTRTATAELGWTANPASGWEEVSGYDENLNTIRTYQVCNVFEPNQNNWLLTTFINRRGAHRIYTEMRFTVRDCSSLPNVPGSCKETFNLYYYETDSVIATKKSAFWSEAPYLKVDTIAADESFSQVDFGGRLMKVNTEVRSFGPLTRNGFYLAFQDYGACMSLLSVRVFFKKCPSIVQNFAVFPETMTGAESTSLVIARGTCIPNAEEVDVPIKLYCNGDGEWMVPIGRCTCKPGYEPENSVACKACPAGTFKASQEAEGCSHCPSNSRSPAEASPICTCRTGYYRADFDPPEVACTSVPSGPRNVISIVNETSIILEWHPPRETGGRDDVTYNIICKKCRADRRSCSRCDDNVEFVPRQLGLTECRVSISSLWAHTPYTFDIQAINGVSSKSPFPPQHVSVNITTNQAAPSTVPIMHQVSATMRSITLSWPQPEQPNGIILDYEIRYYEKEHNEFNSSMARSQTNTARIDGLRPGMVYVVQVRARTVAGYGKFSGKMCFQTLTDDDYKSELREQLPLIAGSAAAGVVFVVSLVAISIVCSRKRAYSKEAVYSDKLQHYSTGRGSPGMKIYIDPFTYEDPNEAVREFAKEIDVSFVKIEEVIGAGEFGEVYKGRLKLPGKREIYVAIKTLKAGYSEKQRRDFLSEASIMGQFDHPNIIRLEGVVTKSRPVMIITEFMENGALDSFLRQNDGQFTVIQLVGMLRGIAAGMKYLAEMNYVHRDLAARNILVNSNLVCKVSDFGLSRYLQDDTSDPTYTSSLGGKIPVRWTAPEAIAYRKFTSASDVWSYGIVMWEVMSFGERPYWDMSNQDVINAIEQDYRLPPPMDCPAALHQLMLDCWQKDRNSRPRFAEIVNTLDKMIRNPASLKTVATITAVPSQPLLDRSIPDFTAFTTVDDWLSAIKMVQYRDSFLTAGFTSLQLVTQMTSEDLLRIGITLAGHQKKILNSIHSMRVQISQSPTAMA
Chain of FGFR1 (P11362 whole entry, looked up): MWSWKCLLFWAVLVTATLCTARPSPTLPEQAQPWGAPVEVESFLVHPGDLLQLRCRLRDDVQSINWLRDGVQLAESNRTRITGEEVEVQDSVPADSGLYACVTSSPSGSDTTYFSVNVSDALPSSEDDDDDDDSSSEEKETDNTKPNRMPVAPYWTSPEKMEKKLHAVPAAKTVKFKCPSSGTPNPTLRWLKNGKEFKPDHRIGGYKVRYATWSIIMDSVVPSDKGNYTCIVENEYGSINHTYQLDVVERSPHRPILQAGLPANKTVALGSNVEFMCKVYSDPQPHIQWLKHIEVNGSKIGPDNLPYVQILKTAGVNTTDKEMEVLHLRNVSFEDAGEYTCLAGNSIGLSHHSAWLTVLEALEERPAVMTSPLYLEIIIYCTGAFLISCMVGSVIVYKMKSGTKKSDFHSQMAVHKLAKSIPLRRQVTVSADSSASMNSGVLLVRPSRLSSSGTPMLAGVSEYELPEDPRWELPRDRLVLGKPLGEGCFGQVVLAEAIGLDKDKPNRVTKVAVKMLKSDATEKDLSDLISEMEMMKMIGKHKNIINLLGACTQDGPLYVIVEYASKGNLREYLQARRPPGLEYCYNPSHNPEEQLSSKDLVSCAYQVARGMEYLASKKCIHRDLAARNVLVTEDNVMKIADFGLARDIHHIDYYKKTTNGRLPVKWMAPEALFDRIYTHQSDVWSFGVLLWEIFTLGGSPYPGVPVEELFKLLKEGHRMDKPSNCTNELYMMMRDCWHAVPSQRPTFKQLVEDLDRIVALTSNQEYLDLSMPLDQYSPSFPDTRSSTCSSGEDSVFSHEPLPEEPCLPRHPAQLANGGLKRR

Sequence | phosphorylation enrichment (EPHB1) | phosphorylation enrichment (Hck) | phosphorylation enrichment (FGFR1) | phosphorylation enrichment (EPHB2) | phosphorylation enrichment (c-Src) | phosphorylation enrichment (Jak2) | phosphorylation enrichment (Fer (mouse)) | phosphorylation enrichment (Fyn) | phosphorylation enrichment (AncSZ) | phosphorylation enrichment (FGFR3) | phosphorylation enrichment (MERTK) | phosphorylation enrichment (Fes) | phosphorylation enrichment (c-Abl (mouse)) | SH2 binding enrichment (Grb2 SH2) | SH2 binding enrichment (SHP2-C SH2) | SH2 binding enrichment (c-Src SH2)
PSRKDYETFQP [CTNND2_Y1154_YF] | 1.04 | 0.73 | 0.558 | 1.52 | 0.737 | 1.11 | 0.473 | 0.605 | 1.22 | 0.667 | 0.572 | 1.21 | 0.907 | 0.884 | 0.372 | 0.645
EDSEFYRAFEE [CASQ2_Y179_K180R_YF] | 0.582 | 0.513 | 0.473 | 0.525 | 0.494 | 1.02 | 0.489 | 0.538 | 1.15 | 0.848 | 0.449 | 1.07 | 0.771 | 0.963 | 0.682 | 0.751
MDFRSYPREFG [RBM10_Y44_YF] | 0.437 | 0.388 | 0.529 | 0.454 | 0.431 | 0.63 | 0.366 | 0.366 | 0.606 | 0.511 | 0.352 | 0.858 | 0.455 | 1.09 | 0.975 | 0.578
KVKSIYFHTQG [AR_Y916_P914S] | 0.542 | 0.414 | 0.414 | 0.449 | 0.436 | 0.614 | 0.367 | 0.51 | 0.69 | 0.544 | 0.379 | 0.718 | 0.563 | 0.641 | 0.793 | 0.568
SLVVPYEPPEV [TP53_Y220_V216L] | 0.769 | 0.663 | 0.672 | 0.756 | 0.547 | 1.33 | 0.666 | 0.62 | 1.28 | 0.836 | 0.595 | 1.29 | 1.26 | 0.789 | 0.772 | 0.696
PAVGIYNDNIN [CDCP1_Y707] | 0.806 | 1.17 | 0.612 | 0.685 | 1.12 | 0.925 | 0.6 | 1.29 | 1.07 | 0.575 | 0.641 | 1.08 | 0.71 | 0.749 | 0.729 | 0.481
AGHEEYSAMRD [KRAS_Y64_Q61H] | 0.462 | 0.542 | 0.51 | 0.578 | 0.558 | 0.854 | 0.43 | 0.588 | 0.797 | 0.588 | 0.532 | 0.981 | 0.616 | 0.777 | 0.713 | 0.512
QCTSDYPEHVC [SART3_Y541] | 0.929 | 0.831 | 0.929 | 0.523 | 0.583 | 1.64 | 0.668 | 0.605 | 1.36 | 0.969 | 0.565 | 1.44 | 1.23 | 0.939 | 0.833 | 0.866
HRLSTYTKMLF [CHST8_Y251] | 0.723 | 0.744 | 0.428 | 0.655 | 0.585 | 1.22 | 0.689 | 0.443 | 1.18 | 0.74 | 0.707 | 1.52 | 1.02 | 1.7 | 1.87 | 1.98
IRNRDYDDIDD [TTYH2_Y424_T419I] | 0.466 | 0.515 | 0.7 | 0.575 | 0.491 | 0.676 | 0.494 | 0.594 | 1.07 | 0.676 | 0.541 | 0.887 | 0.649 | 0.628 | 0.486 | 0.537
GGYNNYGYGSD [HNRNPH3_Y159_N163S] | 1.48 | 0.475 | 0.406 | 2.4 | 0.38 | 0.611 | 0.421 | 0.379 | 0.71 | 0.467 | 0.479 | 0.697 | 0.608 | 0.808 | 0.575 | 0.951
SILAVYSKDIY [PANK2_Y400_N404I] | 0.745 | 2.48 | 0.518 | 0.788 | 2.84 | 1.04 | 0.45 | 2.43 | 1.07 | 0.713 | 2.91 | 0.924 | 0.537 | 0.897 | 0.903 | 0.726
KVALVYGQMNE [ATP5F1B_Y269] | 0.446 | 1.05 | 0.443 | 0.495 | 1.97 | 0.769 | 0.525 | 1.47 | 0.785 | 0.606 | 0.38 | 1.13 | 0.65 | 0.851 | 0.734 | 0.57
GANFEYIIAEK [ECHS1_Y35] | 0.501 | 0.553 | 0.523 | 0.455 | 0.48 | 0.883 | 0.406 | 0.479 | 0.911 | 0.594 | 0.513 | 0.862 | 0.544 | 0.576 | 0.547 | 0.447
YGIAQYCCRMG [LRRK2_Y2023] | 1 | 1.02 | 0.605 | 11.2 | 0.665 | 0.482 | 0.902 | 0.8 | 0.983 | 0.583 | 4.29 | 0.762 | 3.48 | 1.21 | 0.936 | 0.806
AGNPAYRSFSN [IL4R_Y497] | 0.347 | 0.424 | 0.366 | 0.318 | 0.45 | 0.447 | 0.389 | 0.402 | 0.52 | 0.414 | 0.39 | 0.575 | 0.618 | 0.751 | 0.466 | 0.431
HNLNFYKKTTN [FGFR3_Y648_D646N_YF] | 0.761 | 0.572 | 0.735 | 0.553 | 0.565 | 0.832 | 0.806 | 0.975 | 1.42 | 2.99 | 0.605 | 0.92 | 0.642 | 0.722 | 0.632 | 0.428

Sequence | phosphorylation enrichment (EPHB1) | phosphorylation enrichment (Hck) | phosphorylation enrichment (FGFR1) | phosphorylation enrichment (EPHB2) | phosphorylation enrichment (c-Src) | phosphorylation enrichment (Jak2) | phosphorylation enrichment (Fer (mouse)) | phosphorylation enrichment (Fyn) | phosphorylation enrichment (AncSZ) | phosphorylation enrichment (FGFR3) | phosphorylation enrichment (MERTK) | phosphorylation enrichment (Fes) | phosphorylation enrichment (c-Abl (mouse)) | SH2 binding enrichment (Grb2 SH2) | SH2 binding enrichment (SHP2-C SH2) | SH2 binding enrichment (c-Src SH2)
EGNEQYEGFCV [GRIA3_Y451_R450Q_YF] | 0.962 | 0.721 | 0.618 | 0.639 | 0.788 | 1.01 | 2.87 | 0.726 | 1.29 | 0.822 | 0.832 | 1.41 | 0.791 | 0.84 | 0.964 | 0.56
YDRREYSRFEK [ITGB7_Y758] | 0.486 | 0.673 | 0.459 | 0.483 | 0.702 | 0.925 | 0.545 | 0.498 | 0.902 | 0.554 | 0.512 | 0.957 | 0.96 | 1.02 | 0.813 | 0.737
VTRAKYFIRDE [GNAS_Y339] | 0.356 | 0.409 | 0.45 | 0.405 | 0.375 | 0.622 | 0.325 | 0.404 | 0.654 | 0.432 | 0.405 | 0.694 | 0.458 | 0.989 | 0.54 | 0.358
RKELFYKADGE [SERPINC1_Y272] | 0.824 | 0.881 | 0.713 | 0.548 | 0.63 | 0.893 | 0.783 | 0.519 | 1.12 | 0.638 | 0.659 | 1.08 | 0.779 | 0.858 | 0.942 | 0.369
LTPVKYLLSAT [GSDMC_Y26] | 0.585 | 0.429 | 0.46 | 0.412 | 0.345 | 0.433 | 0.282 | 0.396 | 0.515 | 0.508 | 0.425 | 0.616 | 0.593 | 1.08 | 1.05 | 0.537
VRSNHYDPEED [TJP1_Y1346] | 0.494 | 0.579 | 0.66 | 0.608 | 0.445 | 0.974 | 0.49 | 0.568 | 1.27 | 0.748 | 0.526 | 1.19 | 0.688 | 1.02 | 0.744 | 0.578
YCRHNYGAVES [HLA-DRB1_Y112_V114A] | 0.566 | 0.549 | 0.519 | 0.623 | 0.503 | 0.739 | 0.514 | 0.416 | 0.658 | 0.659 | 0.549 | 0.678 | 0.696 | 0.902 | 0.704 | 1.34
TLERHYKELQA [SPTBN2_Y834_E835K] | 0.363 | 0.375 | 0.449 | 0.546 | 0.472 | 0.704 | 0.415 | 0.446 | 0.713 | 0.509 | 0.571 | 0.787 | 0.612 | 0.773 | 0.593 | 0.493
CTTIHYNYKCN [TP53_Y234_M237K] | 0.433 | 0.484 | 0.526 | 0.539 | 0.454 | 0.62 | 0.408 | 0.454 | 0.754 | 0.566 | 0.562 | 0.878 | 0.493 | 1.42 | 1.4 | 1.67
FFCRWYRNRKS [EREG_Y144_YF] | 0.421 | 0.326 | 0.463 | 0.514 | 0.51 | 0.433 | 0.312 | 0.563 | 0.442 | 0.409 | 0.433 | 0.453 | 0.421 | 0.705 | 0.858 | 0.516
ECKFLYSRKEG [PTPN11_Y263_L261F] | 0.576 | 0.618 | 0.495 | 0.594 | 0.423 | 0.849 | 0.362 | 0.537 | 0.969 | 0.593 | 0.436 | 0.939 | 0.639 | 1.06 | 0.626 | 0.6
LGSVVYAHSKE [KCNQ2_Y226] | 0.473 | 0.403 | 0.445 | 0.437 | 0.413 | 0.559 | 0.416 | 0.407 | 0.527 | 0.419 | 0.424 | 0.596 | 0.449 | 0.809 | 0.754 | 0.467
CLLHCYFSQIH [MCM3AP_Y873_R878H] | 0.626 | 0.476 | 0.689 | 0.453 | 0.476 | 1.26 | 0.569 | 0.43 | 0.886 | 0.736 | 0.431 | 1.29 | 0.664 | 2.04 | 1.53 | 1.38
CTTIHHNYMCN [TP53_Y234_Y234H] | 0.486 | 0.455 | 0.601 | 0.531 | 0.432 | 0.835 | 0.412 | 0.459 | 0.766 | 0.586 | 0.362 | 0.649 | 0.525 | 1.01 | 1.03 | 1.23
TSNQEYLFLSM [FGFR1_Y766_D768Y_YF] | 0.765 | 0.572 | 5.2 | 0.721 | 0.488 | 1.06 | 0.557 | 0.574 | 1.21 | 3.32 | 0.469 | 1.09 | 0.813 | 0.877 | 0.563 | 0.358
ENGPFYTSFPP [GDAP2_Y488_YF] | 2.92 | 7.05 | 3.86 | 2.41 | 6.71 | 1.61 | 4.74 | 8.74 | 1.12 | 2.62 | 13.1 | 1.04 | 8.39 | 0.813 | 0.711 | 0.83
